Key:
human CLDN18.2 = biological target: T1, human CLDN18.2 (human); assay: FACS on HEK293/hCLDN18.2 cells
T1 construct: the HEK293 line was made with a GenScript plasmid; also called hCLDN18.2

[1] = biological target: T2, human CD3 on Jurkat cells (human, UniProt P07766 23-207); assay: FACS on Jurkat cells (CD3)
T2 construct: whole, on cells; on cells it stands in the whole CD3/TCR complex; also called CD3-expressing cells
T2 sequence (P07766 23-207): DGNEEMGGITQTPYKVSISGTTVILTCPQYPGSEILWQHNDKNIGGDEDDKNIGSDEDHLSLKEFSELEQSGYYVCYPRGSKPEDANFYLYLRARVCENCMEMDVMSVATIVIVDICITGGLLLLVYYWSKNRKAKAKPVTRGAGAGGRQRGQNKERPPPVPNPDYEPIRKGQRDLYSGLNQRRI
Method: Antibodies were assayed for binding affinity by FACS. Test cells include HEK293/hCLDN18.2, HEK293/hCLDN18.1, NUGC4_D8 and Jurkat cells. […] The cell density was adjusted to 10⁶ cells/mL, and 50 μL of the cell suspension was added to each well of a 96-well plate. Antibodies were diluted to different concentrations with FACS buffer, and 50 μL of the antibody dilution was added to each well of the 96-well plate. After 2 h of incubation at 4° C., the plate was washed twice with FACS buffer. […] After 1 h of incubation at 4° C., the plate was washed twice with FACS buffer. The cells were resuspended in fixative solution, and then the fluorescence of the cells was monitored using an FACS instrument (ACEA NovoCyte).

EC50 (human CLDN18.2): 9.6 nM
binding result [1]: binds
B1: PR007083 (bispecific antibody, human IgG1, lambda)
chain: EVQLVESGGGLVQPGGSLRLSCAASGFTFSSYWMHWVRQVPGKGLVWVCRISSDASRTIYADSVKGRFTCSRDNAKNTLYLQMNSLRAEDTAVYYCARGEDHDILTGYPIRGQGTTVTVSSGGGGSGGGGSGGGGSEVQLVESGGGLVQPGGSLRLSCAASGFTFSSYWMHWVRQVPGKGLVWVCRISSDASRTIYADSVKGRFTCSRDNAKNTLYLQMNSLRAEDTAVYYCARGEDHDILTGYPIRGQGTTVTVSSASEPKSSDKTHTCPPCPAPEAAGAPSVFLFPPKPKDTLMISRTPEVTCVVVDVSHEDPEVKFNWYVDGVEVHNAKTKPREEQYNSTYRVVSVLTVLHQDWLNGKEYKCKVSNKALPAPIEKTISKAKGQPREPQVCTLPPSREEMTKNQVSLSCAVKGFYPSDIAVEWESNGQPENNYKTTPPVLDSDGSFFLVSKLTVDKSRWQQGNVFSCSVMHEALHNHYTQKSLSLSPGK
heavy: EVQLVESGGGLVQPGGSLKLSCAASGFTFSTYAMNWVRQASGKGLEWVGRIRSKYNNYATYYADSVKDRFTISRDDSKNTAYLQMNSLKTEDTAVYYCTRHGNFGNSYVSWFAYWGQGTLVTVSSASTKGPSVFPLAPSSKSTSGGTAALGCLVKDYFPEPVTVSWNSGALTSGVHTFPAVLQSSGLYSLSSVVTVPSSSLGTQTYICNVNHKPSNTKVDKKVEPKSCDKTHTCPPCPAPEAAGAPSVFLFPPKPKDTLMISRTPEVTCVVVDVSHEDPEVKFNWYVDGVEVHNAKTKPREEQYNSTYRVVSVLTVLHQDWLNGKEYKCKVSNKALPAPIEKTISKAKGQPREPQVYTLPPCREEMTKNQVSLWCLVKGFYPSDIAVEWESNGQPENNYKTTPPVLDSDGSFFLYSKLTVDKSRWQQGNVFSCSVMHEALHNHYTQKSLSLSPGK
light: QAVVTQEPSLTVSPGGTVTLTCRSSTGAVTTSNYANWVQQKPGQAPRGLIGGTNKRAPWTPARFSGSLLGDKAALTLLGAQPEDEAEYFCALWYSNLWVFGGGTKLTVLGQPKAAPSVTLFPPSSEELQANKATLVCLISDFYPGAVTVAWKADSSPVKAGVETTTPSKQSNNKYAASSYLSLTPEQWKSHRSYSCQVTHEGSTVEKTVAPTECS
notes: structure 1; CD3 Fab from PR003886; AAA
